One assay relates to Stat1. Description: Western blot for Stat1 phosphorylation in MDA-MB-231 cells. The class given is cell-based, human. To be noted: 100 ng/ml, 15 min. As for the experimental part:
For western blotting, cells were treated with 100 ng/ml cmvIL-10, hIL-10, IFNγ or PBS for 15 min, then harvested into cell lysis buffer (150 mM NaCl, 20 mM HEPES, 0.5% Triton-X-100, 1 mM NaOV4, 1 mM EDTA, 0.1% NaN3). Lysates were clarified, proteins were separated via SDS-PAGE, and then transferred to a nitrocellulose membrane. Then membrane was incubated in blocking solution (5% milk+1×TBS-T) for 1 hr, then probed with primary antibody at a 1:1000 dilution (total Stat3 or pStat3, total Stat1 or pStat1) in blocking solution overnight at 4° C. After washing, the membranes were incubated with a 1:2000 dilution of appropriate AP-conjugated secondary antibody and bands were detected using Western Blue stabilized AP substrate (Promega, Madison, Wis.). For analysis of secreted proteins, supernatants were collected at various time points, analyzed by SDS-PAGE and then immunoblotted as above for cmvIL-10, hIL-10, or serpin E1/PAI.

Assay [1] has as its system MDA-MB-231 cells. The assay is described as follows: Apoptosis, Annexin V-FITC flow cytometry. The class given is cell-based, human. To be noted: 100 ng/ml cmvIL-10 plus 100 μM etoposide, 48 hrs. As for the experimental part: (§1) Cells were seeded into 96-well dishes at a density of 1×10^4 cell per well in complete medium with varying doses of cmvIL-10, and then cell viability measured at the indicated time points using the Cell Titer Glo Assay kit according to manufacturer's instructions (Promega). DNA synthesis was measured in cells prepared in the same way using the BrdU Cell Proliferation ELISA Kit (Roche, Basel, Switzerland). For experiments using inhibitors, cells were cultivated in 96-well dishes as above with a final concentration of 10 μM inhibitor and BrdU incorporation evaluated after 72 hrs. For cell counts, cells were seeded into 6-well plates at a density of 2×10^5 cells per well, harvested via trypsinization, and counted using a hemacytometer at the indicated time points. The TACS Annexin V-FITC Detection Kit (Trevigen, Gaithersburg, Md.) was used to stain cells harvested from 70% confluent T75 flasks that had been treated with 100 μM etoposide for 48 hrs in the presence or absence of 100 ng/ml cmvIL-10. Cells were then analyzed via flow cytometry to detect fluorescence. For viability assays, Cell Titer Glo reagent was utilized to quantify cells that had been seeded into 96-well dishes at a density of 1×10^4 cell per well in complete medium with varying doses of etoposide in the presence or absence of 100 ng/ml cmvIL-10 as indicated
For orientation: Flow cytometry measures light scatter and fluorescence of single cells or particles in a stream.

The next assay concerns MTSS1. Description: MTSS1 immunofluorescence microscopy. The class given is cell-based, human. To be noted: 100 ng/mL, 96 hrs. As for the experimental part:
MDA-MB-231 cells were seeded onto FBS-coated glass coverslips at a density of 2.0×10^5 cells/well and cultured for 48 hrs at 37° C. Cells were treated with 100 ng/mL of purified recombinant cmvIL-10 for 96 hrs, then fixed with 2% paraformaldehyde in DPBS for 20 min, washed, permeabilized with 0.2% Triton-X-100 in PBS for 15 min. The cells were washed and blocked with 10% FBS for 1 hr at 37° C., then incubated with anti-MTSS-1 antibody at a 1:100 dilution for 1 hr at 37° C. followed by the addition of goat anti-mouse TRITC secondary antibody at a 1:150 dilution for 30 min (Life Technologies) and Alexa Fluor 488 phalloidin (Molecular Probes, Eugene, Oreg.). Coverslips were washed and excess fluid was removed before inverting the coverslip onto a glass slide containing 20 μL of DAPI-containing Prolong Gold mounting medium (Life Technologies, Grand Island, N.Y.). Images were taken on a Zeiss AX10 Imager.A1 microscope (Carl Zeiss Inc., Oberkochen, Germany) using AxioVision 4.7.2 imaging software.

In assay [2] the test system is MDA-MB-231 cells. The assay is described as follows: Cell proliferation, Cell Titer Glo. The class given is cell-based, human. As for the experimental part: as §1
Another assay has as its target T1, CXCR4 (Homo sapiens, UniProt P61073).
T1 construct: HEK293 cells, which endogenously express both CXCR4 and IL-10R; endogenous in cells; host or cells: HEK293
Description: Calcium flux assay in HEK293 cells. The class given is cell-based. As for the experimental part: Calcium flux assays were performed as described (Arnolds K L, et al. Virology 439:122-131.). Briefly, cells were resuspended in 2 mls calcium assay buffer (RPMI with 25 mM of HEPES) at a density of 5×10^5 cells/ml per sample. Each sample was labeled with 2 μl of Fluo-4AM (Invitrogen, Grand Island, N.Y.), wrapped in foil, at 37° C. for 30 minutes with agitation at 10-minute intervals. Following incubation, each sample was pelleted, resuspended in calcium assay buffer, and transferred into an eppendorf tube for flow cytometry using the BD C6 Accuri. Fluorescence intensity of each sample was measured for 20 seconds to establish baseline, then stimulus (CXCL12, in the presence or absence of cmvIL-10, as indicated) was added via micropipetting directly into the sample while fluorescence intensity was measured. Kinetic fluorescence intensity analysis was performed with FlowJo software v9.4.9 (FlowJo, Ashland, Oreg.). Purified recombinant cmvIL-10 was purchased from R&D Systems (Minneapolis, Minn.) and purified recombinant CXCL12 was purchased from Peprotech (Rocky Hill, N.J.). For each calcium flux assay, ionomycin (Sigma) was a positive control for Fluo-4AM loading and PBS served as a negative control for the addition of stimulus.

T1 sequence (P61073 whole entry): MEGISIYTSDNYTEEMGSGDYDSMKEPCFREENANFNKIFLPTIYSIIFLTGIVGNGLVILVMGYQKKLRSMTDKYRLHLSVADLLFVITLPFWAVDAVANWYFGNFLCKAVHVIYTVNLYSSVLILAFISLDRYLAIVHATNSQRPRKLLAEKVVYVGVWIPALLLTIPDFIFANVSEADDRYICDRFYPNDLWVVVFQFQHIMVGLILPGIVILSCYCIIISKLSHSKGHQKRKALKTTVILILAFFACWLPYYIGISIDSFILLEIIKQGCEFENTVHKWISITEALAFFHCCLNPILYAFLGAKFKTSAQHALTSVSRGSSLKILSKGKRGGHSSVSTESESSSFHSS

B1: cmvIL-10 (protein)
chain: ATTTTIKNTKPQCRPEDYATRLQDLRVTFHRVKPTLQREDDYSVWLDGTVVKGCWGCSVMDWLLRRYLEIVFPAGDHVYPGLKTELHSMRSTLESIYKDMRQCPLLGCGDKSVISRLSQEAERKSDNGTRKGLSELDTLFSRLEEYLHSRK
With B1, the Stat1 phosphorylation entry in the assay on Stat1 is “did not globally activate other cellular effectors, such as Stat1”. Moreover, the “cells stained positive for Annexin V” value with MDA-MB-231 cells [1] stood at 14.8%. The “MTSS1 protein (immunofluorescence)” value in the assay with MTSS1 is reported as “dramatic reduction in the amount of MTSS1 protein”. Further, the “cell growth (cell viability, RLU)” value is “significantly higher cell growth than control cultures” in the assay with MDA-MB-231 cells [2] (100 ng/ml, 72 hrs) and “greater growth than control cells” in the assay with MDA-MB-231 cells [2] (increasing doses of cmvIL-10). In the assay with CXCR4 (CXCL12 0.1 μg/ml plus cmvIL-10 0.1 μg/ml), the “peak fluorescence intensity of calcium mobilization” value is “significantly higher”. Besides, in the assay with CXCR4 (cmvIL-10 alone), the calcium mobilization entry is “did not induce calcium mobilization”.
